In the experiment the target is T1, EGFRvIII (on U-87.ΔEGFRvIII cells) (human, UniProt P00533 25-1210).
T1 construct: whole, on cells; also called de2-7 EGFR; mutant EGFR
The experiment can be described thus: flow cytometry, membrane fluorescence staining of cell suspensions with 1 uM FITC-peptide for 30 min. (In general: Flow cytometry measures light scatter and fluorescence of single cells or particles in a stream.)

Where no end group is shown, it is not given here.

B1: anti-EGFRvIII peptide (PEPCH1)-FITC (peptide)
peptide: HFLIIGFMRRALCGA
modifications: also: FITC label, position not given here
notes: Synthetic peptide after Campa et al., 2000; Used at 1 uM as a FITC conjugate; also called PEPHC1; PEPHC1 ligand
For B1, the binding result is recorded as “binds”.

The record behind these values is patent US20060147420A1 (University of Texas, published 2006).
